Data published in the PETadex activity labels (doi:10.1016/s0021-9258(17)37371-4).
Changes are numbered by the printed parent chain.

B1: unnamed (protein)
chain: MRPPQCLLHTPSLASPLLLLLLWLLGGGVGAEGREDAELLVTVRGGRLRGIRLKTPGGPVSAFLGIPFAEPPMGPRRFLPPEPKQPWSGVVDATTFQSVCYQYVDTLYPGFEGTEMWNPNRELSEDCLYLNVWTPYPRPTSPTPVLVWIYGGGFASGASSLDVYDGRFLVQAERTVLVSMNYRVGAFGFLALPGSREAPGNVGLLDQRLALQWVQENVAAFGGDPTSVTLFGESAGAASVGMHLLSPPSRGLFHRAVLQSGAPNGPWATVGMGEARRRATQLAHLVGCPPGGTGGNDTELVACLRTRPAQVLVNHEWHVLPQESVFRFSFVPVVDGDFLSDTPEALINAGDFHGLQVLVGVVKDEGSYFLVYGAPGFSKDNESLISRAEFLAGVRVGVPQVSDLAAEAVVLHYTDWLHPEDPARLREALSDVVGDHNVVCPVAQLAGRLAAQGARVYAYVFEHRASTLSWPLWMGVPHGYEIEFIFGIPLDPSRNYTAEEKIFAQRLMRYWANFARTGDPNEPRDPKAPQWPPYTAGAQQYVSLDLRPLEVRRGLRAQACAFWNRFLPKLLSATDTLDEAERQWKAEFHRWSSYMVHWKNQFDHYSKQDRCSDL
B2: unnamed (protein)
chain: B1 chain with A155Y, F369A
B3: unnamed (protein)
chain: B1 chain with W117A, A155Y
B4: unnamed (protein)
chain: B1 chain with Y103A
B5: unnamed (protein)
chain: B1 chain with A155Y, Y368F
B6: unnamed (protein)
chain: B1 chain with E316A, W317A
B7: unnamed (protein)
chain: B1 chain with A155Y, W317A
B8: unnamed (protein)
chain: B1 chain with A155Y

What follows are proteins tested on Acetylcholine. Conditions: pH 8; 27 °C.
With B1 the Km was 250 µM, the kcat was 4170 s⁻¹ and the kcat/Km was 1.67e+07 M⁻¹ s⁻¹. With B2 the Km was 140 µM, the kcat was 2830 s⁻¹ and the kcat/Km was 2.02e+07 M⁻¹ s⁻¹. With B3 the Km was 93000 µM, the kcat was 1330 s⁻¹ and the kcat/Km was 14300 M⁻¹ s⁻¹. B4 gave a Km of 70 µM, a kcat of 4170 s⁻¹ and a kcat/Km of 5.95e+07 M⁻¹ s⁻¹. With B5 the Km was 160 µM, the kcat was 6670 s⁻¹ and the kcat/Km was 4.17e+07 M⁻¹ s⁻¹. B6 showed a Km of 280 µM, a kcat of 2330 s⁻¹ and a kcat/Km of 8.33e+06 M⁻¹ s⁻¹. In the case of B7, the Km is reported as 200 µM, the kcat is reported as 5330 s⁻¹ and the kcat/Km is reported as 2.67e+07 M⁻¹ s⁻¹. Protein B8 has a Km of 120 µM, a kcat of 7000 s⁻¹ and a kcat/Km of 5.83e+07 M⁻¹ s⁻¹.
